Patent US20120283194

How the values were obtained:
[1] = target: GST:Gli1 fragment, zinc finger DNA binding region (UniProt P08151)
GST:Gli1 fragment, zinc finger DNA binding region, sequence (P08151 235-387): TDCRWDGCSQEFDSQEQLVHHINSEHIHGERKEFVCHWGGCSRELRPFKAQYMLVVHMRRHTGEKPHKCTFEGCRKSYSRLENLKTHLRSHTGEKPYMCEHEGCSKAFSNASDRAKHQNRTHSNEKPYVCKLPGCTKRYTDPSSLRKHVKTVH

B1: recombinant HIS:aPKC (enzyme, UniProt P41743 2-596, looked up, species assumed)
Protein kinase C iota type: PTQRDSSTMSHTVAGGGSGDHSHQVRVKAYYRGDIMITHFEPSISFEGLCNEVRDMCSFDNEQLFTMKWIDEEGDPCTVSSQLELEEAFRLYELNKDSELLIHVFPCVPERPGMPCPGEDKSIYRRGARRWRKLYCANGHTFQAKRFNRRAHCAICTDRIWGLGRQGYKCINCKLLVHKKCHKLVTIECGRHSLPQEPVMPMDQSSMHSDHAQTVIPYNPSSHESLDQVGEEKEAMNTRESGKASSSLGLQDFDLLRVIGRGSYAKVLLVRLKKTDRIYAMKVVKKELVNDDEDIDWVQTEKHVFEQASNHPFLVGLHSCFQTESRLFFVIEYVNGGDLMFHMQRQRKLPEEHARFYSAEISLALNYLHERGIIYRDLKLDNVLLDSEGHIKLTDYGMCKEGLRPGDTTSTFCGTPNYIAPEILRGEDYGFSVDWWALGVLMFEMMAGRSPFDIVGSSDNPDQNTEDYLFQVILEKQIRIPRSLSVKAASVLKSFLNKDPKERLGCHPQTGFADIQGHPFFRNVDWDMMEQKQVVPPFKPNISGEFGLDNFDSQFTNEPVQLTPDDDDIVRKIDQSEFEGFEYINPLLMSAEECV
modifications: His tag
[1]
  in vitro kinase reaction: aPKC phosphorylates recombinantly expressed human Gli1 DNA-binding domain
  in vitro kinase reaction ([g-32P]ATP, SDS-PAGE, phosphor screen): with the majority of the phosphorylation occurring in the zinc finger DNA binding region of Gli1
GST:Gli1
GST:Gli1, sequence (P08151 whole entry): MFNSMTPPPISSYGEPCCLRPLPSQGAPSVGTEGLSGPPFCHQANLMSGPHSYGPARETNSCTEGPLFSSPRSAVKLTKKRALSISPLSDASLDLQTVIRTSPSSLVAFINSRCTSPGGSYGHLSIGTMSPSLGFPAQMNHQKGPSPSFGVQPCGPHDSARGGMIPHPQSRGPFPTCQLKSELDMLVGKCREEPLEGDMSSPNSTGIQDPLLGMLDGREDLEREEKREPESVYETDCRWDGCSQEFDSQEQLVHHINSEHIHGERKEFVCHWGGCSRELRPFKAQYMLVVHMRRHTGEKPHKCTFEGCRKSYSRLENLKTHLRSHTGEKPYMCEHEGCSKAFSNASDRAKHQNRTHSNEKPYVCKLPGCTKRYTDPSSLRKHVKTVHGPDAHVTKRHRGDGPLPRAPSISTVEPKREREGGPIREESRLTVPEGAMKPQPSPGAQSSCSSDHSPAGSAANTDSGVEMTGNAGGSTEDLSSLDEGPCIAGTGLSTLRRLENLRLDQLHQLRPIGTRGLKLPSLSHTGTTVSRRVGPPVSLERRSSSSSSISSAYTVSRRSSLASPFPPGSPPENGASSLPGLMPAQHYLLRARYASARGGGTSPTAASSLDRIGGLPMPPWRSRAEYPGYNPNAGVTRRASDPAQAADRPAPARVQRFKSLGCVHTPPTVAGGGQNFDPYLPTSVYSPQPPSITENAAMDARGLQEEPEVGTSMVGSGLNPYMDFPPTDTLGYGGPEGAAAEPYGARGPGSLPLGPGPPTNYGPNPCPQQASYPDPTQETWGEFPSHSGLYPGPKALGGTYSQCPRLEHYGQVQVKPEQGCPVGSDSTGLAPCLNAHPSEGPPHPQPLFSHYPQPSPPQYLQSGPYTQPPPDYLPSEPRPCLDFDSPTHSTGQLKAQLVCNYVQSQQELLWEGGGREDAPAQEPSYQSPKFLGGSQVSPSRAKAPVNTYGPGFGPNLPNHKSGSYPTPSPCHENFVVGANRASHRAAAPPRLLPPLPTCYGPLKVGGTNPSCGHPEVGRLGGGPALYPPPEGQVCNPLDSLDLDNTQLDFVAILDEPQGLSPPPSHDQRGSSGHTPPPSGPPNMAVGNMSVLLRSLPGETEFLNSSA
  in vitro kinase reaction ([g-32P]ATP, SDS-PAGE, phosphor screen): aPKC phosphorylates Gli1 (FIG. 3i)
